The values below come from a protein production outcome set (Wang et al. 2014).
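Further: failed if final PepcDB status was selected cloned or expressed and not failed if soluble or beyond.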

This data set in a line: label from the status in PepcDB records.
For “MATVTKAPKKQIQFADDMQEFTKFPTKTGRRSLSRSISQSSTDSYSSAASYTDSSDDEVSPREKQQTNSKGSSNFCVKNIKQAEFGRREIEIAEQDMSALISLRKRAQGEKPLAGAKIVGCTHITAQTAVLIETLCALGAQCRWSACNIYSTQNEVAAALAEAGVAVFAWKGESEDDFWWCIDRCVNMDGWQANMILDDGGDLTHWVYKKYPNVFKKIRGIVEESVTGVHRLYQLSKAGKLCVPAMNVNDSVTKQKFDNLYCCRESILDGLKRTTDVMFGGKQVVVCGYGEVGKGCCAALKALGAIVYITEIDPICALQACMDGFRVVKLNEVIRQVDVVITCTGNKNVVTREHLDRMKNSCIVCNMGHSNTEIDVTSLRTPELTWERVRSQVDHVIWPDGKRVVLLAEGRLLNLSCSTVPTFVLSITATTQALALIELYNAPEGRYKQDVYLLPKKMDEYVASLHLPSFDAHLTELTDDQAKYLGLNKNGPFKPNYYRY”, the protein production result is listed as “failed”.

As to “MAVAAAKYTTGFWINTIVIILIIAYLVYQLYLYWKRGKISTQLDDDEFRAGMRKAQVIDVREKKEFDAGHILGARNIPYSQMKNRTQELRSDLPVYLYDQGRTFSGRAAMLLSKKGFTQLYILKNGYQRWTGKTKKTKY”, the protein production result is listed as “failed”.

With “MAVALLGNRDGQAFLATLFDLARRGHVTLRHDREDQAFGTTDVVRLETHPAPNDLSDFERRLVDTLGEYETLDDFWSDTRSFRSDVMSDVRGVLFERGWMENHTVRSGLLLGGALVALLGGFAAVVTGDSALRFYLLFGGMGVSLGGFIAAVRQYTWTEDGARRAMALRAYLDHEKSEIERLRETSPARAAERLVDALPWLLLHDEVSRAWIEETKEALDAADEVPELPDGFVSLVETEGSARAPVAAFLPVVTVMGAVESSSAGAVGAAGASGAAGAAGGGAGAAGAA”, the protein production result is reported as “failed”.

Take “MAVDMFIKIGDVKGESKDKTHAEEIDVLAWSWGMSQSGSMHMGGGGGAGKVNVQDLSFTKYIDKSTPNLMMACSSGKHYPQAKLTIRKAGGENQVEYLIITLKEVLVSSVSTGGSGGEDRLTENVTLNFAQVQVDYQPQKADGAKDGGPVKYGWNIRQNVQA”: the protein production entry is given as “not failed”.

With “MAVEEVIEMQGLSLDPTSHRVMAGEEPLEMGPTEFKLLHFFMTHPERVYSREQLLNHVWGTNVYVEDRTVDVHIRRLRKALEPGGHDRMVQTVRGTGYRFSTRF”, the protein production result is listed as “not failed”.

In the case of “MAVKHASAPKAYINITGLGFAKLTKEGAELKYSDITKTRGLQKIGVETGGELKTAYADGGPIESGNTDGEGKISLQMHAFPKEIRKIVFNEDYDEDGVYEEKQGKQNNYVAVWFRQERRDGTFRTVLLPKVMFTNPKIDGETAEKDWDFSSEEVEGEALFPLVDNKKSVRKYIFDSANMTNHGGDGEKGEEAFLKKILGEEYTGNVTEDNEETLLEHHHHHH”, the protein production entry is on record as “not failed”.

Turning to “MAVLGQLGFMIAFLSGGVAAGHFGLLTERRTDILTTLVFTVALPALIFRSTYDRPLQEIISPALLGGFWVIIALTITLGWLVHRRLESADRRSVSVVQSYHSNMGFLGLPLVAATMGSEATAVASVILGIGAVTHVPVTVFLLVRINGSDASLLSECRKLVTNPVLIALAAGITASVLSLSVPESLISALGPPAELALPVALLCIGATLDTDLPVSDLQKTVSVVGLKVLWMPALAWLVYSSLSMDTTALGAAVVMLGTPTAVSTYVYTTELGGDAAFASLNVFTSTVVSIGTLSLLVWLFT”, the protein production result is on record as “failed”.

Consider “MAVNVYSTSVTSENLSRHDMLAWVNDSLHLNYTKIEQLCSGAAYCQFMDMLFPGCVHLRKVKFQAKLEHEYIHNFKVLQAAFKKMGVDKIIPVEKLVKGKFQDNFEFIQWFKKFFDANYDGKDYNPLLARQGQDVAPPPNPGDQIF”, for which the protein production result is given as “not failed”.

With “MAVPPVEMYSGSFWNRMRKPLPLRTQVIRFTVVFVIVSFILAVALQITHERMPDPKVTKPLPDLGFELLTKVPGMYVLADCCIGFLNILSVFTAFKLYLLHRHCVGSGEPELPCNIPGVSRFFLSVWLCKENCRIELRNIHTIAWIRFITSYALLLLFRSAVIVMTSLPAPDDLCQDPPKIENPVKNVILTVLTAGGGSIHCGDLMYSGHTVILTLHLMFHWIYGAMVHWSFRPVVTVVAIFGYYCIVASRFHYTDDVLVAIYLTIATFIAVGHNADGAPWQLQLFIRWWPCCGANSREVTEDSQPVMVAFKSEELDEMNGVLEGRQKKHGGVGDGESLMFKCGAYVVSHHHHHH”, the protein production entry is on record as “not failed”.

For the sequence “MAVPTELDGGSVKETAAEEESRVLAPGAAPFGNFPHYSRFHPPEQRLRLLPPELLRQLFPESPENGPILGLDVGCNSGDLSVALYKHFLSLPDGETCSDASREFRLLCCDIDPVLVKRAEKECPFPDALTFITLDFMNQRTRKVLLSSFLSQFGRSVFDIGFCMSITMWIHLNHGDHGLWEFLAHLSSLCHYLLVEPQPWKCYRAAARRLRKLGLHDFDHFHSLAIRGDMPNQIVQILTQDHGMELICCFGNTSWDRSLLLFRAKQTIETHPIPESLIEKGKEKNRLSFQKQ”, the protein production result is listed as “failed”.

For the sequence “MAVRFASLGSGSDGNALLVESTDGTTSTRILLDCGFGIRETVRRLERLGCAPASLDAILVTHEHGDHIGSAYAFAAKYSVPVWTSHGTYRATASLRGADRAAVRFCRADDAFSIGDLRILPYTVPHDAREPLQFIFDDGARRLGVLTDAGMSTEYLCGHLTGLHAFVLECNHDREMLANSAYPWSLKQRIGGDFGHLANDIAAAILARVRHDGLHTVVAAHLSKQNNTPELAAAAIASALGVPAGDVPIADQEAGLGWQAV”, the protein production result is given as “failed”.

For “MAVSLPNSFLQISPCVPSLQLRKPVMAAVKGGKQSVRRSSNTVVQITCRKKELHPEFHEDAKVYCNGELVMTTGGTKKEYVVDVWSGNHPFYLGNRSALMVDADQVEKFRKRFAGLSEIMEIPVLKGEIIMPTKKSKGPKGKKK”, the protein production entry is reported as “failed”.

Turning to “MAVSNDITFADYFYQWYEVNKLPHVSESTKRHYESAYKHIKDHFRHKLLKDIKRTEYQKFLNEYGLTHSYETIRKLNSYIRNAFDDAIHEGYVIKNPTYKAELHASVPAKTELEHHHHHH”, the protein production result is on record as “not failed”.

On to “MAVTLRLTNSLAFSSHPLTSSVLFRGSKSIGTITKIASTIRTVKMAAFAGSDSETTSSTSRVIDSHLHIWASPQEAETYPYFPGQEPTLTGDVNFLLKNMEEARVDGALIVQPINHKFDHSLVTRSRPF”, for which the protein production result is on record as “failed”.

“MAVYTDITEDELRNFLTQYDVGSLTSYKGIAEGVENSNFLLHTTKDPLILTLYEKRVEKNDLPFFLGLMQHLAAKGLSCPLPLPRKDGELLGELSGRPAALISFLEGMWLRKPEAKHCREVGKALAAMHLASEGFEIKRPNALSVDGWKVLWDKSEERADEVEKGLREEIRPEIDYLAAHWPKDLPAGVIHADLFQDNVFFLGDELSGLIDFYFACNDLLAYDVSICLNAWCFEKDGAYNVTKGKALLEGYQSVRPLSEAELEALPLLSRGSALRFFLTRLYDWLTTPAGALVVKKDPLEYLRKLRFHRTIANVAEYGLAGE”: the protein production entry was “not failed”.

In the case of “MAYDDMGFPVSVSGPARRVVSLVPSLTEAIAHTRREALVGATDWCTHPAGLDVARVRGTKNPDRAAIAALRPDLVIANKEENRELDVRMLRAAGIPVWVTVIQTVPQALDSLTRLFTEALCWPLPDWLVEARRLWSHPLPPVRARVAIPVWRDPWMVVGSATFTGDLARRLGLANVFADHPERYPKVALADIDRDDVDLVVLPDEPYAFTPQDGPEAFRCAPTVLVSGRLLTWYGPSLLHAKEGLAALVQ”, the protein production result is “failed”.

“MAYDIERYLDIRGAGDPTYGPTGELAFTLGTTGTAQVWALGAPGAWPTQLTFHDERVQWASFSPTREELAYGMDTGGDEFTQLHRVSGDGSEDVQLTAFPDAKHDWGGWSHDGDRIAYTANRRDASRFDVYVQGRDEAGANADCVRVGDTFDLPSVVGWSPSDDRLLVVDTHSNFDQDVAVLDVDTGEITRATAGLDADTRFSWVAWAPDGGGVYVTTDHDADTRYLGLLDPETGAISRVADGGDWPIEAVVTAHDAGRLAYVRNRDGYSELTIADAAGTTLTEQPTPELPDGVIRGLSWGPDGDTLAVVVSAATENPNVFVVDVATGAATQWTNAATAGIPKSTFREPELVRYETFDGREIPALFTRPDGDGPHPVIVDFHGGPEGQRRPSFLSLRQYFVDNGYAVFEPNVRGSSGYGATYMNLDNVRNRMDAVADGKAGVEWLTARTDIDADRVVAYGGSYGGFMVLASLTEYPELWAAGVDIVGIANFVTFLENTGDWRREHRESEYGSLDADREFLESISPTNNADRIRAPLLVLHGANDPRVPVGEAERIVEQASAHVPVEKHVFDDEGHGFSKRANKQAAYRAVVDFLDDHA”: the protein production entry is reported as “failed”.

Consider “MAYDLWYWDGIPGRGEFVRLALEAGKIPYRDRAREPGEDMLDDMRRRRDTPPFAPPYLVADGMTIAQTANILLFLGVEHGLAPPDRAGRLWVNQLQLTIADLTAEAHDVHHPVAAGLYYEDQQDVALRRAADFRETRMPKFMQYFEQALDRPGGWLTDMGRWSYADLSLYHVVEGLLHAFPRRMRTLVHRYPRLMALHARVAELPELRGYLASDRRLPFGDGIFRHYPELDGA”, for which the protein production result was “not failed”.

As to “MAYDNRAVVRKVLLITLLLNLFVMGLKAFVGYLTGSLSLLADALHSVTDSANNILGLFASSFSSPYPDREHPYGHHKFEAVGALGIAAFLGIACFEILQGAIERILKGGAPVRISPPELWLLLIVLGVNIFVAFYERNEGKRVGSQILIADATHTMSDVWVTISVIFGLIGVWLGYQWLDIVLAFPVALLVFWSGWSVLKENLPWLVDQMAIAPEAIHAIAVAVPGVINCHDIASRGVLGRQIFMEMHLIVDAPDVETAHRITEEVERRLEERFSPVRIIIHVEPPNYESEQISFETGSK”, the protein production result was “failed”.

Consider “MAYVKERIYESMFIIAPNVPEEERENLVERVKKIIEERVKGKIDKVERMGMRKFAYEIKKFNEGDYTVIYFRCDGQNLQELENFYRVTPEIIRWQTFRRFDLEKKERKAQREKAAAEATESSEGGSED”, for which the protein production entry was “not failed”.

In the case of “MCAFNGAALTALGISHSALLAHSPQGCEYLVNNAFASQECDYMETMTLCTKLCVDEIVHGGEDILARTIREVKDLPISALFVLSACGPEIVGDDIVGVCEALQPEVKFRLVPIESAGFRGSQYDGIDIAMDTILKKLVKDDVEKIPGSVCLEHHHHHH”, the protein production entry is “failed”.

Take “MCARPCRPTNLPTRFSMSNSDPSPTLEGNYDLLFRFAFWLFVGAISFSVAGMLLLRLVPSSMAIFGPIYTKLVKTPTWTFMTLLALLPLLMYGPTLGWKKISLIAAWGCIIGGASELIGTTGWLNVGGIALPFGEYEYTQWLGPKIAGHVPYFIPPSWFAMSIVSLDLARRVTTQRVGSLLLGTLFMVLWDVSLDPAMNQAFPFWEYGVDGVFFGMPLSNWAGWAGVTFVILLGYEYIGKGAPIQNEWAPWVYALNCIFPLSICLLRDVYLPALIGGLATLVPFLLLWRYNPDSLKRSVSLFRG”: the protein production entry is listed as “failed”.

With “MCCCVQFLMSFSSVPSAMPAIDPDALESQVAQRLDPHGSDGVQSALSGVVDLEALEERRYGEVLGAIDQRLTQSRYSLLSMVVAGIYFGLLVGLWLVDGSTWSRIALWLAPTLLVAVYGLYATHQTVRQIRHLSETRALLQILMNGPSADG”, the protein production result is given as “failed”.

Regarding “MCDTFVEFIQLEETVKHDENGKPVKRLRRRETLVHSENVAGRSFWNEHSSLHKDLGHFAKDIGKIEPDYVKSFQFESRLLPLTWVVVRIDGCHFHRFSEVHEFEKPNDEQALKLMNSCAVAVLEEFQDIAFAYGVSDEFSFVLKNKSELYKRQSSKIISAVVSFFTSTYMMRWGDFFPHKKLKYPPSFDGRAVCYPTSDILLDYLAWRQVDCHINNQYNTCFWMLVKSGKSKIQAQDYLKGTQTREKNELLSQQFGIEYNSLPVIFRMGSSVFRLKVLLLLSYSKILLVFHSRFLLL”, the protein production entry is recorded as “failed”.

“MCIAIPGKMTAIVDENTATIDMGGICRDVNMALMGGAEESMIGKHFLVHVGYAISEISEEESEETMRLLKIMAGLEEIDSFE”: the protein production result was “not failed”.
